Experimental data as given in US7855050.

Key:
Experiment in all cases: cell-based or functional assay
[1] = target: Glycoprotein VI, GPVI^a allele protein (SKTQH), on platelets of 'aa' homozygous donors (human) (UniProt Q9HCN6)
[2] = target: Glycoprotein VI on human platelets of donors not sorted to one allele (random donors, 'ab' heterozygotes, or donors whose genotype is not stated) (human) (UniProt Q9HCN6)
[3] = target: Glycoprotein VI, GPVI^b allele protein (PEALN), on platelets of 'bb' homozygous donors (human) (UniProt Q9HCN6)

## Collagen related peptide (CRP), triple-helical peptide containing a glycine-proline-hydroxyproline repeat motif
[1]
  platelet aggregation at a CRP concentration of 0.10 µg/ml (mean): 71%
[2]
  % of platelets binding annexin V at CRP 10 µg/ml: 10 to 30%
[3]
  platelet aggregation at a CRP concentration of 0.10 µg/ml (mean): 4.6%
